# Assay results taken from US20250011363A1, “OPTIMIZED SHORTENED PEPTIDE THAT BINDS TO ACETYLCHOLINE RECEPTOR, AND USE THEREOF” (SKINMED CO., LTD., priority 2021, published 2025).
# Molecular target: acetylcholine receptor
# Assay: SPR, AchR immobilized on CM5 chip, peptide at 10 uM
row,Binder,Binding affinity (RU)
1,KQISKK [6mer-2-343],146
2,KKKHKR [6mer-1-858],27
3,KKHSEK [6mer-1-862],32
4,KGIRRK [6mer-2-344],148
5,RRCTER [6mer-1-863],27
6,RRLTRR [6mer-2-340],122
7,RRTWGR [6mer-1-864],32
8,KWRSRR [6mer-2-335],153
9,KRPAFK [6mer-1-857],14
10,KRYRKK [6mer-2-342],145
11,KRINIR [6mer-1-861],21
12,RSVQKR [6mer-2-338],145
13,KVVTKR [6mer-2-341],144
14,KQVYKK [6mer-2-339],151
15,KKMTAR [6mer-1-865],21
16,KLITKR [6mer-2-336],135
17,RKHWWR [6mer-1-860],22
18,KQFQKK [6mer-2-337],142
19,RKCMVK [6mer-1-859],27

# More lines, now with the values ahead:
row,Binding affinity (RU),Binder
1,148,RGQTRK [6mer-2-350]
2,153,KSQLRR [6mer-2-348]
3,148,KSRQKK [6mer-2-345]
4,145,RLLQRR [6mer-2-356]
5,124,RGIRKK [6mer-2-355]
6,137,RWFYRR [6mer-2-352]
7,153,KRFSKK [6mer-2-346]
8,137,RRLSRR [6mer-2-349]
9,135,KLYTKR [6mer-2-351]
10,135,RWISKK [6mer-2-354]
11,148,RRYSKK [6mer-2-347]
12,137,RLQTKK [6mer-2-353]
